For this experiment, the target named is T1, CCR4 endogenously expressed on CCRF-CEM cells (UniProt P51679 1-360, limits assumed).
T1 sequence (looked up): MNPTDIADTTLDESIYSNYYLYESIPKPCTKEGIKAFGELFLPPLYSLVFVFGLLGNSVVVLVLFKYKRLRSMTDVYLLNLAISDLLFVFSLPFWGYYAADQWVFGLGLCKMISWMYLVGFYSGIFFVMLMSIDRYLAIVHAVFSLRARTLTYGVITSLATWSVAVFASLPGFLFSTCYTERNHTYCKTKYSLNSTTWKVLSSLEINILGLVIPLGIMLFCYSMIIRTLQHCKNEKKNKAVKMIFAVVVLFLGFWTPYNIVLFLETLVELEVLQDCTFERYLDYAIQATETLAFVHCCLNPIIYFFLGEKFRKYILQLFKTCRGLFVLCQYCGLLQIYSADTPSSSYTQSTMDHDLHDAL
The experiment can be described thus: cell-based or functional assay.

Data on one molecule can be found in patent US20120082622A1 (Janssen / Centocor, published 2012).

B1: mature Macaca fascicularis CCL17 (cynoCCL17), refolded from E. coli inclusion bodies (ligand)
chain: ARGTNVGRECCLKYFKGAIPLRKLKTWYQTSEDCSRDAIVFVTVQNKAICSDPNDKKVKKALKYLQSL
For the molecule B1, the “calcium flux of CCRF-CEM cells (Fluo-8 NW dye fluorescence), EC50” value came out at 0.665 ng/mL.
